Source: article PMC1904291

Columns and labels:
Test in all cases: EMSA
[1] = biological target: T1, I-CreI Δ1 (UniProt P05725 1-137)
T1 sequence: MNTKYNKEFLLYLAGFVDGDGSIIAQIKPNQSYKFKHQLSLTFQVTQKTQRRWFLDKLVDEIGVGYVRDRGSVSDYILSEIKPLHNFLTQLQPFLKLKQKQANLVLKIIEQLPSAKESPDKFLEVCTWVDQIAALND

[2] = biological target: T2, I-CreI S138A (UniProt P05725 1-163, S138A)
T2 sequence: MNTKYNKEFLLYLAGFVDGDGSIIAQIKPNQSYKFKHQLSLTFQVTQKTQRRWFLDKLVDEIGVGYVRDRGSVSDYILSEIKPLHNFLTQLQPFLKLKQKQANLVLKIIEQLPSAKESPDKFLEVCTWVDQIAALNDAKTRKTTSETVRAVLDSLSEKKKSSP

[3] = biological target: T3, I-CreI (UniProt P05725 1-163)
T3 sequence: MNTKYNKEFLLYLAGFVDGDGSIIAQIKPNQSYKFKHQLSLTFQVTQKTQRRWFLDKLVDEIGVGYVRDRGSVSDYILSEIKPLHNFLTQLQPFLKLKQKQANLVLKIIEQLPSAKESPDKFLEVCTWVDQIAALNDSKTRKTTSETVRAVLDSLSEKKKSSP

[4] = biological target: T4, I-CreI K139M (UniProt P05725 1-163, K139M)
T4 sequence: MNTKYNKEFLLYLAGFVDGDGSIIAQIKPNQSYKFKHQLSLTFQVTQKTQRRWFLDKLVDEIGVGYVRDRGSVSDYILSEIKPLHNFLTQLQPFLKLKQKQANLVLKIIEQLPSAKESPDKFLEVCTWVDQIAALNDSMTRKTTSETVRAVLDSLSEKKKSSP

[5] = biological target: T5, I-CreI GG (UniProt P05725 1-163, K142G;T143G)
T5 sequence: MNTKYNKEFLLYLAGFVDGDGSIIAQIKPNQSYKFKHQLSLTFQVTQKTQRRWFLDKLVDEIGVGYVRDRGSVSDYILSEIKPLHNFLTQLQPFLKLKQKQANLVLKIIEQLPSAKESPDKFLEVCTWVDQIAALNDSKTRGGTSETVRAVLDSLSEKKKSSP

[6] = biological target: T6, I-CreI AM (UniProt P05725 1-163, S138A;K139M)
T6 sequence: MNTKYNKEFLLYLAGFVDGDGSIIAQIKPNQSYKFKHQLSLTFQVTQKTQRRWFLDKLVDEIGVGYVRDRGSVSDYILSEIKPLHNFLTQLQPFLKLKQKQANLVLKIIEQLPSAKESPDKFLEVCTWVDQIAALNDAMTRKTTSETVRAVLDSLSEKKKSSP

B1: 6-FAM I-CreI target duplex (dsDNA)
DNA 1: GCAAAACGTCGTGAGACAGTTTGC
DNA 2: GCAAACTGTCTCACGACGTTTTGC
binding result [1]: no binding | Kd [2]: 250 nM | Kd [3]: 0.2 nM | Kd [4]: 110 nM | Kd [5]: 50 nM | Kd [6]: 1240 nM
